The record followed here is publication doi:10.1101/2023.10.30.564768 (2023).

This assay concerns the target T1, His-RecA WT, activated as RecA* (nucleoprotein filament on ssDNA with ATPγS) (E. coli, UniProt P0A7G6 1-353).
T1 chain: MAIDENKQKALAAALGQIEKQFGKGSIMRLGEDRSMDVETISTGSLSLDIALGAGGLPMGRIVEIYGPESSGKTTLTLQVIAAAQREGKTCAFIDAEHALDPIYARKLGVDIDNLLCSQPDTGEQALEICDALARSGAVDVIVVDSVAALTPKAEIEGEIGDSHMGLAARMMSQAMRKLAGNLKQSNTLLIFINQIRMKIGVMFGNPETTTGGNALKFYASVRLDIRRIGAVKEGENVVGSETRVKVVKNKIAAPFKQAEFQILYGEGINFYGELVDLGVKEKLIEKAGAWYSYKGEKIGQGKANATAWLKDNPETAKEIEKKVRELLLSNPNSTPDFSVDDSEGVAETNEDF
The assay can be described thus: FP; competition against LexA-δ.

Where a chain is given by its changes, count along the chain named. Names may count otherwise.

B1: LexA quad-mutant (QM): L89P, Q92W, E152A, K156A (natural protein)
chain: MKALTARQQEVFDLIRDHISQTGMPPTRAEIAQRLGFRSPNAAEEHLKALARKGVIEIVSGASRGIRLLQEEEEGLPLVGRVAAGEPLPAQWHIEGHYQVDPSLFKPNADFLLRVSGMSMKDIGIMDGDLLAVHKTQDVRNGQVVVARIDDAVTVARLKKQGNKVELLPENSEFKPIVVDLRQQSFTIEGLAVGVIRNGDWL
Take B1: the 50% inhibitory concentration (IC50) is 3800 nM.

B2: His-LexA K156A (natural protein)
chain: B1 chain with P89L, W92Q, A152E
Turning to B2, the concentration for half-maximal inhibition (IC50) turned out to be 500 nM.

The IC50 is the midpoint of a concentration-inhibition curve.
